From patent EP2216341A1, “Transferrin variants and conjugates” (Novozymes Biopharma UK Limited, priority 2009, dated 2010)

Key:
[1] = test system: K562 erythroleukemic cells; assay: 55Fe uptake from labeled diferric transferrin in erythroleukemic K562 cells; assay type: cell-based, human; details: 25 minutes at 37°C
Experimental: Human plasma-derived apo-transferrin (Calbiochem 616419, tissue culture grade, pyrogen-free) is supplied lyophilised from 10mM phosphate buffer, pH7.4. The transferrin mutein is expressed, purified and quantified as described above.
For iron-55 uptake from labeled diferric transferrin, K562 erythroleukemic cells, cultured in RPMI cell culture medium under standard conditions (bicarbonate-buffered, 5% (v/v) CO2, antibiotics, 10% (v/v) fetal calf serum) are washed with serum-free medium containing HEPES-buffer and 1 mg/ml of bovine serum albumin and used at a concentration of 10 million cells/ml in this medium. The samples tested are prepared as equimolar concentrations of apo-transferrin mutein. Apo-transferrin mutein is loaded with iron according to a standard procedure (Bates and Schlabach, J Biol Chem, 248, 3228-3232, 1973) using ferric nitrilotriacetate as iron source. Typically 50µl of 1 M NaClO4 is added to 450µl of the transferrin mutein stock-solution (pH is alkaline to neutral). The ^55Fe -NTA-loading-buffer is prepared by mixing 8.5µl 50mM NTA (pH 8.25), 18.9µl 0.1M Tris, 98.8µl Millipore-purified water and 7.5µl ^55FeCl3 in 0.5 N HCl (NEN products). 500µl of transferrin mutein is carefully mixed (dropwise) with the ^55Fe -NTA-loading-buffer and then 310µl of 5mM Hepes. NaOH/0.1M NaClO4 is added. The mixture is incubated at 4°C for 60 min following which it is deslated on a PD-10 column (containing Sephadex G-25) and dialysed. The PD-10 column is equilibrated with 5ml of equilibration buffer (5mM Hepes/NaOH, 0.1M NaClO4, 0.1 g BSA (Amresco)) then washed three times with 5ml of wash buffer (5mM Hepes/NaOH, 0.1M NaClO4). […]
Increasing concentrations of human plasma transferrin or the transferrin mutein sample (0, 25, 100, 200, 400, 800, 1600 nM), labeled with ^55Fe, are mixed with 25 µl of medium. […] The lysates are neutralized with 1 M HCl after overnight lysis, mixed with Readysolv Scintillation cocktail and counted in the Packard Liquid Scintillation Counter. […]

[2] = target: T1, transferrin receptor 1 (TfR1) (Homo sapiens, UniProt P02786); assay: Transferrin receptor 1 binding by Surface Plasmon Resonance (SPR, Biacore); details: fluorescein conjugated sample
T1 construct: purchased AbD Serotec 9110-300
T1 sequence (P02786 whole entry): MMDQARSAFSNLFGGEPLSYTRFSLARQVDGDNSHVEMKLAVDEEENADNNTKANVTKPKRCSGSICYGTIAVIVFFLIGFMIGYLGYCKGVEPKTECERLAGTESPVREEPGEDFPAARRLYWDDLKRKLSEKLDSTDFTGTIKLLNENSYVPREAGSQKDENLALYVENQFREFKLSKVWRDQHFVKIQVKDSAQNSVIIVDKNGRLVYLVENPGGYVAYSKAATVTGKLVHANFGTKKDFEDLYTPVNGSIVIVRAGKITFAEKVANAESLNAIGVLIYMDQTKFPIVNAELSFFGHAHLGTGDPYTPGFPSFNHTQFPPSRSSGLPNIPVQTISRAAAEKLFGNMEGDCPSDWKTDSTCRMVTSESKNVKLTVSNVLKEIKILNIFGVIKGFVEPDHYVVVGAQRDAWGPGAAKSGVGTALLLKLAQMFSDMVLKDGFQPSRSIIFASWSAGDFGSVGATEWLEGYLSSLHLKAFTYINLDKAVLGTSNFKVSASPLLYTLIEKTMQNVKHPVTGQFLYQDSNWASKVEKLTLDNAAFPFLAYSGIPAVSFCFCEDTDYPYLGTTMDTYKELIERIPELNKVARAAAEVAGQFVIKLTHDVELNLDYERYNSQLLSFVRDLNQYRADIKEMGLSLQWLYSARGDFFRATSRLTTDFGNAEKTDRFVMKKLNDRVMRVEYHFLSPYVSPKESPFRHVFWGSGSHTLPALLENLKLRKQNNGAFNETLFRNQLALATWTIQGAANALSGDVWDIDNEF
Description: The receptor binding capability of the recombinant transferrin variants can be determined by Surface Plasmon Resonance (SPR) analysis. The binding activity of a transferrin sample to a transferrin receptor can be measured using surface plasmon resonance (SPR) a non-invasive optical technique in which the SPR response is a measure of change in mass concentration at the detector surface as molecules bind or dissociate. A sample is sent onto the surface of the sensor chip via a micro flow system at a constant flow rate. In this analysis, if the transferrin sample is able to bind to the Transferrin Receptor the mass on the surface sensor chip is increased due to binding between Transferrin Receptor and Transferrin molecules creating a surface plasmon wave, and a shift of the SPR signal proportional to the binding quantity can be detected as a change in the resonance unit (RU). […]
The binding capacity of human serum transferrin to human trabnsferrin receptor 1 may be measured by SPR. […]
The receptor binding capability of the recombinant transferrin variants was assessed by Surface Plasmon Resonance (SPR) analysis. The binding activity of a transferrin sample to transferrin receptor can be measured using surface plasmon resonance (SPR) a non-invasive optical technique in which the SPR response is a measure of change in mass concentration at the detector surface as molecules bind or dissociate. […]

ability to bind to transferrin receptor 1 (measured by SPR) [2]: able to bind to transferrin receptor 1
B1: Fluorescein conjugated thio-transferrin (S28C, S415A, T613A): Thiotransferrin (S28C, S415A, T613A) conjugated with fluorescein (conjugate, UniProt P02787 20-698, looked up, variant S28C S415A T613A)
Serotransferrin: VPDKTVRWCAVSEHEATKCQSFRDHMKCVIPSDGPSVACVKKASYLDCIRAIAANEADAVTLDAGLVYDAYLAPNNLKPVVAEFYGSKEDPQTFYYAVAVVKKDSGFQMNQLRGKKSCHTGLGRSAGWNIPIGLLYCDLPEPRKPLEKAVANFFSGSCAPCADGTDFPQLCQLCPGCGCSTLNQYFGYSGAFKCLKDGAGDVAFVKHSTIFENLANKADRDQYELLCLDNTRKPVDEYKDCHLAQVPSHTVVARSMGGKEDLIWELLNQAQEHFGKDKSKEFQLFSSPHGKDLLFKDSAHGFLKVPPRMDAKMYLGYEYVTAIRNLREGTCPEAPTDECKPVKWCALSHHERLKCDEWSVNSVGKIECVSAETTEDCIAKIMNGEADAMSLDGGFVYIAGKCGLVPVLAENYNKADNCEDTPEAGYFAIAVVKKSASDLTWDNLKGKKSCHTAVGRTAGWNIPMGLLYNKINHCRFDEFFSEGCAPGSKKDSSLCKLCMGSGLNLCEPNNKEGYYGYTGAFRCLVEKGDVAFVKHQTVPQNTGGKNPDPWAKNLNEKDYELLCLDGTRKPVEEYANCHLARAPNHAVVTRKDKEACVHKILRQQQHLFGSNVADCSGNFCLFRSETKDLLFRDDTVCLAKLHDRNTYEKYLGEEYVKAVGNLRKCSTSSLLEACTFRRP
modifications: fluorescein conjugate
Specific iron ptake Bmax ([1]; 55Fe-labeled sample 0-1600 nM, specific uptake (unspecific binding with hundredfold excess unlabeled diferric transferrin accounted for)): 2430±125 fmol^55Fe/10^6 cells 25min | Total Iron Uptake Bmax ([1]; 55Fe-labeled sample 0-1600 nM, total uptake): 3294±170 fmol^55Fe/10^6 cells x 25min | Kd ([1]; specific uptake, read-out: Specific iron ptake Kd x): 154 ± 32 nM
